Laboratory results taken from IntAct's records for PubMed 25117763.

B1: Axin interactor, dorsalization-associated protein (Mus musculus), Q8C4Q6-1 (parent)
chain: MSEVTRSLLQRWGASLRRGADFDSWGQLVEAIDEYQILARHLQKEAQAQHNNSEFTEEQKKTIGKIATCLELRSAALQSTQSQEEFKLEDLKKLEPILKNILTYNKEFPFDVQPIPLRRILAPGEEENLEFEEDEEGGAGAGPPDSFSARVPGTLLPRLPSEPGMTLLTIRIEKIGLKDAGQCIDPYITVSVKDLNGIDLTPVQDTPVASRKEDTYVHFNVDIELQKHVERLTKGAAIFFEFKHYKPKKRFTSTKCFAFMEMDEIKPGPIVIELYKKPTDFKRKKLQLLTKKPLYLHLHQSLHKE

Variants of: B1
Conditions: with Axin1, O35625-2
Chain of Axin1, O35625-2 (O35625 other isoform, or with tags, fused parts or gaps): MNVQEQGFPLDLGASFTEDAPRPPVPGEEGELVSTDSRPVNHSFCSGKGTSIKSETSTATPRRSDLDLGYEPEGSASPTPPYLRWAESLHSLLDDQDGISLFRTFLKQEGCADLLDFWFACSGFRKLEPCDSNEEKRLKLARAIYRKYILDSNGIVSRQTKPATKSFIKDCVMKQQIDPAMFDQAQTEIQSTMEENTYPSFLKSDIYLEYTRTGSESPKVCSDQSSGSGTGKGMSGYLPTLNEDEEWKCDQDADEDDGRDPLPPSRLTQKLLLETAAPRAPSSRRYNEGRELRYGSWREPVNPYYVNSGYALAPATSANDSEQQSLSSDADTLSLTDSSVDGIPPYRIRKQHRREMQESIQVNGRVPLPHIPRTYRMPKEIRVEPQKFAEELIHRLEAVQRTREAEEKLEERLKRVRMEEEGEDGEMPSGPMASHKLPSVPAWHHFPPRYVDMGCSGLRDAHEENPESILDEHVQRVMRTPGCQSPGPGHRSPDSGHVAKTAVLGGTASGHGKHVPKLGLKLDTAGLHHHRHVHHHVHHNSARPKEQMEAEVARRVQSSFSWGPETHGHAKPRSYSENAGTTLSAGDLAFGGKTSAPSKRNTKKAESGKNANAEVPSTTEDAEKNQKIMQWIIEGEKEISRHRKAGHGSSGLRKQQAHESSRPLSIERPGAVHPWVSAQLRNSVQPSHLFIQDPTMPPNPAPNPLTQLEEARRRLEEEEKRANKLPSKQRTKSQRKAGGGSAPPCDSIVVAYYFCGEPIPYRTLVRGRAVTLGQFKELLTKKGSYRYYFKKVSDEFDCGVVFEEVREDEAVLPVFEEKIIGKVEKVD

Row | effect of a mutation on the interaction | Variant
1 | disrupting interaction | K282A;R283A;K284A;K285A
